Measurements: patent publication US20180371086A1 (Gilead, published 2018)

Columns and labels:
Human FcRn [1] = target: T1, Human FcRn (human, UniProt P55899 24-297; P61769 21-119); test: ELISA, FcRn coated on plate; ratio of EC50 at pH 7.0 to pH 6.0
T1 construct: also called neonatal Fc receptor
Protocol: (§1) The binding of antibodies to FcRn of various antibody variants at different pHs was determined. A 96-well Maxisorp plate was coated with 100 ul of 5 μg/ml FcRn. The plate was incubated overnight at 4° C., and then blocked with 4% skim milk for 2 hr at room temperature after washing 3 times with 0.05% Tween 20 washing buffer. […] The plate was then washed 3 times and 100 μL of Fab-anti-human Fab-HRP or Goat anti-human IgG-HRP secondary antibody diluted in 4% skimmed milk was added. Plates were then incubated 50 min at room temperature, washed three times, and 100 μL fresh TMB substrate was added. Plates were developed for 3 minutes on bench with gentle shaking. Plate was quenched with 100 μL 1M HCl, shaken briefly, read at A450 on a spectramax m5 plate reader.

[2] = target: gp120 (HT593) expressed on human embryonic kidney (HEK) cells (HIV-1); test: cell-based or functional assay
Human FcRn [3] = target: T1, Human FcRn; test: ELISA, FcRn coated on plate; pH 7.0/6.0 ratio against that of PGT121
Protocol: as §1

[4] = target: HIV-1 Env (gp120) of virus 727 (HIV-1); test: cell-based or functional assay
[5] = target: HIV-1 Env (gp120) of virus 657 (HIV-1); test: cell-based or functional assay
[6] = target: HIV-1 Env (gp120) of virus 7552 (HIV-1); test: cell-based or functional assay
[7] = target: HIV-1 Env (gp120) of virus CH058 (HIV-1); test: cell-based or functional assay
[8] = target: HIV-1 Env (gp120) of virus 7406 (HIV-1); test: cell-based or functional assay
[9] = target: HIV-1 Env (gp120) of virus 8176 (HIV-1); test: cell-based or functional assay
[10] = target: HIV-1 Env (gp120) of virus 8106 (HIV-1); test: cell-based or functional assay
[11] = target: HIV-1 Env (gp120) of virus 7576 (HIV-1); test: cell-based or functional assay
[12] = target: HIV-1 Env (gp120) of virus 593 (HIV-1); test: cell-based or functional assay
[13] = target: HIV-1 Env (gp120) of virus 8089 (HIV-1); test: cell-based or functional assay
[14] = target: HIV-1 Env (gp120) of virus REJO (HIV-1); test: cell-based or functional assay
[15] = target: HIV-1 Env (gp120) of virus CH106 (HIV-1); test: cell-based or functional assay
[16] = target: HIV-1 Env (gp120) of virus 8339 (HIV-1); test: cell-based or functional assay
[17] = target: HIV-1 Env (gp120) of virus 8320 (HIV-1); test: cell-based or functional assay
[18] = target: HIV-1 Env (gp120) of virus BaL (HIV-1); test: cell-based or functional assay
[19] = target: HIV-1 Env (gp120) of virus WITO (HIV-1 (clone WITO)); test: cell-based or functional assay
[20] = target: HIV-1 Env (gp120) of virus 8398 (HIV-1); test: cell-based or functional assay
[21] = target: HIV-1 Env (gp120) of virus 7015 (HIV-1); test: cell-based or functional assay
[22] = target: HIV-1 Env (gp120) of virus 7051 (HIV-1); test: cell-based or functional assay
[23] = target: HIV-1 Env (gp120) of virus 712 (HIV-1); test: cell-based or functional assay
[24] = target: HIV-1 Env (gp120) of virus 1489 (HIV-1); test: cell-based or functional assay

T1 sequence (P55899 24-297 limits assumed, chain 1 of 2): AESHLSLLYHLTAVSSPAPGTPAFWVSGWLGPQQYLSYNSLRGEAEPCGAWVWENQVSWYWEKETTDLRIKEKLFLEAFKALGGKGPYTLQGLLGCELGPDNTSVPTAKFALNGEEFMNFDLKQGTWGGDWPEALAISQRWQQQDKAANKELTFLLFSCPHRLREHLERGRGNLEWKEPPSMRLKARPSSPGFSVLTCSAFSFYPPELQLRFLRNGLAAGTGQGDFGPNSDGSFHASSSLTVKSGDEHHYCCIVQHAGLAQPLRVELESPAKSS
T1 sequence (P61769 21-119 limits assumed, chain 2 of 2): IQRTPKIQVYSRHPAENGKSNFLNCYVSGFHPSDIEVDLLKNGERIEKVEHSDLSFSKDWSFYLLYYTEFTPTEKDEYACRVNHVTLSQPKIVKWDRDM

B1: PGT121.60 hIgG1/hLambda (antibody)
heavy: QMQLQESGPGLVKPSETLSLTCSVSGASISDSYWSWIRRSPGKGLEWIGYVHKSGDTNYNPSLKSRVHLSLDTSKNQVSLSLTGVTAADSGKYYCARTLHGRRIYGIVAFNEWFTYFYMDVWGTGTQVTVSSASTKGPSVFPLAPSSKSTSGGTAALGCLVKDYFPEPVTVSWNSGALTSGVHTFPAVLQSSGLYSLSSVVTVPSSSLGTQTYICNVNHKPSNTKVDKKVEPKSCDKTHTCPPCPAPELLAGPDVFLFPPKPKDTLMISRTPEVTCVVVDVSHEDPEVKFNWYVDGVEVHNAKTKPREEQYNSTYRVVSVLTVLHQDWLNGKEYKCKVSNKALPLPEEKTISKAKGQPREPQVYTLPPSREEMTKNQVSLTCLVKGFYPSDIAVEWESNGQPENNYKTTPPVLDSDGSFFLYSKLTVDKSRWQQGNVFSCSVLHEALHSHYTQKSLSLSPGK
light: not shown
Ratio pH 7.0/6.0 (Human FcRn [1]): 355
% ADCC Activity (ADCC reporter cell based assay; sample stressed at 25° C. for 4 weeks, relative to its untreated control) [2]: 65%
Fold vs PGT121 (Human FcRn [3]): 11 fold
EC50 (µg/mL), killing of HIV-infected cells (Mean) [4]: 0.034 µg/mL
Emax, killing of HIV-infected cells (Mean) [4]: 66%
EC50 (µg/mL), killing of HIV-infected cells (Mean) [5]: 1.44 µg/mL
Emax, killing of HIV-infected cells (Mean) [5]: 62%
EC50 (µg/mL), killing of HIV-infected cells (Mean) [6]: 0.011 µg/mL
Emax, killing of HIV-infected cells (Mean) [6]: 66%
EC50 (µg/mL), killing of HIV-infected cells (Mean) [7]: 0.16 µg/mL
Emax, killing of HIV-infected cells (Mean) [7]: 71%
EC50 (µg/mL), killing of HIV-infected cells (Mean) [8]: 0.09 µg/mL
Emax, killing of HIV-infected cells (Mean) [8]: 63%
EC50 (µg/mL), killing of HIV-infected cells (Mean) [9]: 1.01 µg/mL
Emax, killing of HIV-infected cells (Mean) [9]: 56%
EC50 (µg/mL), killing of HIV-infected cells (Mean) [10]: 0.11 µg/mL
Emax, killing of HIV-infected cells (Mean) [10]: 75%
EC50 (µg/mL), killing of HIV-infected cells (Mean) [11]: 0.016 µg/mL
Emax, killing of HIV-infected cells (Mean) [11]: 71%
EC50 (µg/mL), killing of HIV-infected cells (Mean) [12]: 0.912 µg/mL
Emax, killing of HIV-infected cells (Mean) [12]: 56%
EC50 (µg/mL), killing of HIV-infected cells (Mean) [13]: 0.226 µg/mL
Emax, killing of HIV-infected cells (Mean) [13]: 64%
EC50 (µg/mL), killing of HIV-infected cells (Mean) [14]: 2.6 µg/mL
Emax, killing of HIV-infected cells (Mean) [14]: 0%
EC50 (µg/mL), killing of HIV-infected cells (Mean) [15]: 6.17 µg/mL
Emax, killing of HIV-infected cells (Mean) [15]: 46%
EC50 (µg/mL), killing of HIV-infected cells (Mean) [16]: 3.81 µg/mL
Emax, killing of HIV-infected cells (Mean) [16]: 13%
EC50 (µg/mL), killing of HIV-infected cells (Mean) [17]: 2.12 µg/mL
Emax, killing of HIV-infected cells (Mean) [17]: 0%
EC50 (µg/mL), killing of HIV-infected cells (Mean) [18]: 0.048 µg/mL
Emax, killing of HIV-infected cells (Mean) [18]: 73%
EC50 (µg/mL), killing of HIV-infected cells (Mean) [19]: 2.52 µg/mL
Emax, killing of HIV-infected cells (Mean) [19]: 71%
EC50 (µg/mL), killing of HIV-infected cells (Mean) [20]: 0.067 µg/mL
Emax, killing of HIV-infected cells (Mean) [20]: 76%
EC50 (µg/mL), killing of HIV-infected cells (Mean) [21]: 0.516 µg/mL
Emax, killing of HIV-infected cells (Mean) [21]: 55%
EC50 (µg/mL), killing of HIV-infected cells (Mean) [22]: 0.394 µg/mL
Emax, killing of HIV-infected cells (Mean) [22]: 49%
EC50 (µg/mL), killing of HIV-infected cells (Mean) [23]: 0.084 µg/mL
Emax, killing of HIV-infected cells (Mean) [23]: 71%
EC50 (µg/mL), killing of HIV-infected cells (Mean) [24]: 0.276 µg/mL
Emax, killing of HIV-infected cells (Mean) [24]: 70%
